Laboratory results taken from PMC11440607 (Journal of Medicinal Chemistry, 2024).

Key:
Assay type in all cases: physicochemical
[1] = Amyloid aggregation propensity by thioflavin-T (ThT) fluorescence
From the text: (§1) The pH-sensitive, reversible amyloid aggregation of GLP-1 and related gastrointestinal hormones is an inherent and functionally critical property. They are stored as condensed amyloids at low pH before being released as monomeric, folded hormones at neutral pH. At the same time, the exact evolutionary origin[45] of Ex4 with its functional role as a salivary toxin in lizards remains unknown.[45],[46] The difference in secretion pathways is notable: GLP-1 is secreted into the bloodstream, while Ex4 is secreted into the alimentary canal. […] In terms of structure, the polyproline tail of the Ex4 Tc fold effectively shields the −^21LFIEWL^26− aggregation-prone region[40] (APR) of the facing α-helix, while the similar −^21EFIAWL^26− helical segment of GLP-1 remains unshielded. We therefore investigated the short- and long-term aggregation behavior of GLP-1, Ex4, and related Tc5b-modified variants using an amyloid-specific thioflavin-T fluorescence assay, CD spectroscopy, and atomic force microscopy (AFM) at 37 °C (Figure 5).
The exact peptide content percentage of the lyophilized peptides was determined by using a Nanodrop Lite UV–vis spectrophotometer at 280 nm. […] The exact concentration was determined by UV spectrometry using a Jasco V-660 spectrophotometer (Tokyo, Japan) at 412 nm with an extinction coefficient of 31.600 M^–1 cm^–1. […] A SpectraMax iD3 microplate reader (Molecular Devices, Sunnyvale, CA, USA) was used to control the experimental conditions (37 °C, orbital shaking at medium intensity) and to collect fluorescence data over 3 days. […] The emitted fluorescence was measured from the bottom of the microplate with medium photomultiplier tube sensitivity (PMT) settings and an integration time of 400 ms. […] The average fluorescence intensity of the peptide-free ThT sample was used as a background and subtracted from the average fluorescence intensity of the peptide-containing samples at each measurement point. The mean and standard deviation of ThT fluorescence intensities were plotted as a function of time using Origin software version 2022b and Excel software version 2020.

[2] = Long-term aggregation monitored by CD spectroscopy; conditions: pH 7.4, 1 mg mL-1, 150 mM NaCl, 37 °C, 500 rpm, two weeks
From the text: as §1, with “(APR) of the facing α-helix, while the similar −^21EFIAWL^26− helical segment of GLP-1 remains unshielded.” left out
Circular dichroism (CD) experiments were performed using JASCO J-810 and J-1500 spectropolarimeters. […] Melting curves were recorded in the temperature range of 5–85 °C in 5 °C increments. […] Exact concentrations were determined by using a Nanodrop Lite UV–vis spectrophotometer at 280 nm. To determine the folded fraction (F%), the temperature-dependent spectrum collection of 65 CD curves was analyzed using Convex Constraint Analysis Plus software.[59] […]

[3] = Atomic force microscopy of aggregation samples
Description: Ten μL aliquots were taken from the ThT and CD measurement samples at the end point of the experiments, after 3 days and 2 weeks of agitation, respectively. These aliquots were then spread on freshly cleaved mica surfaces and dried overnight in a vacuum desiccator. In some cases, the spread samples were washed with pH-adjusted water to remove any salts that might crystallize during the drying process and potentially complicate the AFM micrograph recording. The surface morphology was analyzed using a FlexAFM microscope system (Nanosurf AG, Liestal, Switzerland) operating in dynamic mode, controlled by Nanosurf control software C3000 version 3.10.4. Micrographs were taken using Tap150GD-G cantilevers (BudgetSensors Ltd., Sofia, Bulgaria) with a nominal tip radius of less than 10 nm. Prescreening was run before data collection to avoid significant height variations in the surface topology. Data collection was performed at different locations within each sample. Images were recorded with a maximum window size of 10 × 10 μm at a resolution of 512 pixels/line. Gwyddion 2.62 software was used to process the AFM data and generate the images.

## Exendin-4 [Ex4]
[1]; ThT, CD and AFM, 37 °C, acidic and neutral pH, 1 and 5 mg mL–1
  amyloid formation / aggregation propensity: did not exhibit any evidence of amyloid formation

## glucagon-like peptide-1 [GLP-1]
[1]; ThT fluorescence, pH 4.2–4.5, 1 and 5 mg mL–1, 37 °C, orbital shaking, 3 days, triplicate
  thioflavin-T response under acidic conditions: exceeded the limit of detection range
[1]; acidic conditions, concentration-dependent, 37 °C
  time to amyloid fibril formation under acidic conditions: ≤ 1 days
[2]
  amyloid formation under neutral pH conditions: forms amyloid assemblies under neutral pH conditions, albeit in two weeks
[3]; 72 h agitated acidic ThT samples, 1 mg mL–1
  fibril formation by AFM: reveal fibril formation
[3]; AFM, acidic conditions
  diameter of twisted amyloid fibrils: 5–10 nm
